From publication PMC8301015, “Atypical Bacilliredoxin AbxC Plays a Role in Responding to Oxidative Stress in Radiation-Resistant Bacterium Deinococcus radiodurans” (Antioxidants, 2021) come the findings set out here.

The series deals with the molecule itself. The experiment in a line: non-reducing SDS-PAGE; purified AbxC 0.5 mg/mL in PBS, 15 min, without or with increasing concentrations of H2O2 (or oxidised with diamide); 12% gel, non-reducing; disulfide-linked dimer against monomer.

The stoichiometry N is the number of molecules, sites or subunits per partner or assembly.

B1: AbxC (atypical BrxC; DR_1832), C-terminal His x 6 tag (enzyme, Deinococcus radiodurans, UniProt Q9RTD3 1-211, looked up)
chain: MTQGQDQVLSPLTTPDEVDQFLKDYPLAAVFKAGTCHKTMQGFGVLETFLQRYELPVGFIRVVDWRPASNHVAELTGLTHHSPQFILFKDGQAQYEVNNWDITPEALGPVFEQQVPQRSGAAQVDAGDSVEPYRQLMQAYLAGQLSDWAFQDQYVTMFRDDASLRSQREFELLSRLFGDPDAYHGGLHQLGAPQDRGDLKARVQSVLDQLG
notes: AbxC (DR_1832), Deinococcus radiodurans R1; monomer 23.7 kDa; single cysteine Cys36; also called putative homolog of BrxC (YtxJ); source: E. coli BL21-CodonPlus (DE3)-RP, purified (Ni-NTA, Superdex 75HR)
Regarding B1, the “stoichiometry N” value stood at 2.
